Assay results from patent US20230235078A1 (University of Texas, published 2023).

T1: mouse DDR1 ECD (mouse, UniProt Q03146 22-415)
T1 construct: extracellular domain; construct not described; also called mouse ECD
T1 sequence (looked up): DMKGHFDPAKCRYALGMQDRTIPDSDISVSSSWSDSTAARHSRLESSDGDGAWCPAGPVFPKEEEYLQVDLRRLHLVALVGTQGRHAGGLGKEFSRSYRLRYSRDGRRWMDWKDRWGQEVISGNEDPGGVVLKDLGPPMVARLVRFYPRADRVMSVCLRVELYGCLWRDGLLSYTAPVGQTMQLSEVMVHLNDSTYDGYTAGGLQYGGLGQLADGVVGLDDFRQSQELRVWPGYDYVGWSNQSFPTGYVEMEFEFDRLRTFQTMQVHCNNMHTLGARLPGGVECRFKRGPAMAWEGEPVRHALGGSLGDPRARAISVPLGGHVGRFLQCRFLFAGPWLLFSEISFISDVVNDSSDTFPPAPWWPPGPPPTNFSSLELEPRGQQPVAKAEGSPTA

T2: human DDR2 ECD (human, UniProt Q16832 22-399)
T2 construct: extracellular domain; also called DDR2 ECD protein
T2 sequence (looked up): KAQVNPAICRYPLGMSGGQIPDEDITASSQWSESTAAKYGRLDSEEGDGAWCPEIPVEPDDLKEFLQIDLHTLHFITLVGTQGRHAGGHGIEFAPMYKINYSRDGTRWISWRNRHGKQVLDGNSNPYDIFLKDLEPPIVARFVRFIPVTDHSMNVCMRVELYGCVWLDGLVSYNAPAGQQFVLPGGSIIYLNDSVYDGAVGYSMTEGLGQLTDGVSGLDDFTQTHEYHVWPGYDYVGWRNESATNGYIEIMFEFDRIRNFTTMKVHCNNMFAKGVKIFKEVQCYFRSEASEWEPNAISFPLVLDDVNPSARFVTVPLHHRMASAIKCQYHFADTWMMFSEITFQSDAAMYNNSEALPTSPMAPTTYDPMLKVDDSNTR

B1: DDR1-14 (antibody, V domains shown)
VH: QSVKESGGRLVTPGTPLTLTCTVSGIDLSYYAMSWVRQAPGKGLEYIGIINGRGDTGYATWAKGRFTISKTSTTVDLRITSPTIEDTATYFCAREDSAIPFIVGNYYGMDLWGPGTLVTVSS
VL: ELDMTQTPASVSEPVGGTVTIKCQASQSISSYLAWYQQKPGQPPKRLIFEASTLASGVPSRFSGSGSGTDFTLTISDLECADAATYYCQNNNGFSGSNFNNFGGGTEVEIK
notes: Rabbit variable domains; also called anti-huDDR1 antibody #14; DDR1-14K/DDR1-14H
B2: DDR1-9Hu-Ab1 (antibody, V domains shown)
VH: QVQLVESGGRVVQPGRSLRLSCTASGFSLNRYYMLWVRQAPGKGLEWIGTISYGDTTYYASWAKGRFTISRDNSKNTLYLQMNSLRAEDTAVYYCARADTGDNGYLGLQLWGQGTLVTVSS
VL: DIQMTQSPSSVSASVGDRVTITCQASQSIGSVLAWYQQKPGKAPKLLISGVFDLASGVPSRFSGSGSGTDFTLTISSLQPEDFATYYCQYIPYGSSPFGGGTKVEIK
notes: Humanized form of DDR1-9; also called DDR1-9hu-Abl; humanized DDR1-9hu antibody
B3: DDR1-33 (antibody, V domains shown)
VH: QSVEESGGRLVTPGGSLTLTCTVSGFSLSSYDMSWVRQAPGKGLEWIGISWNSGFVDYASWAKGRFSISKTSTTVDLKITSPTTEDTATYFCARLGADDIYYFNLWGPGTLVTISS
VL: ELVMTQTPASVEAAVGGTVTIKCQASETISSRLAWYQQKPGQPPKLLIYQASKLPSGVPSRFKGTGSGTEYTLTISDLECADAATYYCQGCYYGGGSFYDSAFGGGTEVVVK
notes: Rabbit variable domains; also called anti-huDDR1 #33 antibody; DDR1-33K/DDR1-33H
B4: DDR1-3 (antibody, V domains shown)
VH: QSVKESGGRLVTPGTPLTLTCTVSGIDLSSYAMSWVRQAPGKGLEWIGTINIGGGTWDATWARGRFTISRTSTTVDLKITSPTIGDTATYFCARDVDAHTLTYFTLWGPGTLVTISS
VL: ELVLTQTPASVSEPVGGTVTIKCQASQTISSWLSWYQQKPGQPPKLLIYYAFNLASGVPSRFKGSGSGTEFTLTISDLECADAATYYCQQGISSSNVDNVFGGGTEVVVK
notes: Rabbit variable domains; also called anti-huDDR1 antibody #3; DDR1-3K/DDR1-3H
B5: DDR1-9 (antibody, V domains shown)
VH: QSLEESGGRLVTPGTPLTLTCTASGFSLNRYYMLWVRQAPGEGLEWIGTISYGDTTYYASWAKGRFTISKTSTTVDLKMTSPTTEDTATYFCARADTGDNGYLGLQLWGPGTLVTVSS
VL: ELVMTQTPASVEAAVGGTVTIKCQASQSIGSVLAWYQQKPGQRPKLLISGVFDLASGVPSRFKGSGSGTEFTLTISDLECADAATYYCQYIPYGSSPFGGGTEVVVK
notes: Rabbit variable domains; also called anti-huDDR1 antibody #9; DDR1-9K/DDR1-9H

Assays:
Type I collagen = assay: ELISA on coated type I collagen with conditioned media
mouse DDR1 ECD = biological target: T1, mouse DDR1 ECD; assay: titration ELISA on mouse DDR1
[1] = biological target: T3, Human DDR1 extracellular domain (ECD) protein (human, UniProt Q08345 21-417); assay: BLI (Octet 96-Red), antibody on protein A biosensors, recombinant DDR1 0.1-200 nM, 1:1 fit
T3 construct: also called recombinant human DDR1 ECD; huDDR1 ECD; not shown: 6xHIS-tag
Protocol: Binding affinity of anti-DDR1 monoclonal antibodies determined using Bio-layer interferometry (BLI) sensor-based Octet instrument. […] Following a short baseline in kinetics buffer, the loaded biosensors were exposed to a series of recombinant DDR1 protein at 0.1-200 nM and background subtraction was used to correct for sensor drifting. All experiments were performed with shaking at 1,000 rpm. Background wavelength shifts were measured from reference biosensors that were loaded only with antibody. Kinetic sensorgrams for each antibody are shown in FIGS. 10A-B. ForteBio's data analysis software was used to fit the data to a 1:1 binding model to extract an association rate and dissociation rate. The KD was calculated using the ratio of koff/kₒₙ and the estimated values of KD for DDR1 mAbs in Table 13.
Target sequence in this assay (Q08345 21-417): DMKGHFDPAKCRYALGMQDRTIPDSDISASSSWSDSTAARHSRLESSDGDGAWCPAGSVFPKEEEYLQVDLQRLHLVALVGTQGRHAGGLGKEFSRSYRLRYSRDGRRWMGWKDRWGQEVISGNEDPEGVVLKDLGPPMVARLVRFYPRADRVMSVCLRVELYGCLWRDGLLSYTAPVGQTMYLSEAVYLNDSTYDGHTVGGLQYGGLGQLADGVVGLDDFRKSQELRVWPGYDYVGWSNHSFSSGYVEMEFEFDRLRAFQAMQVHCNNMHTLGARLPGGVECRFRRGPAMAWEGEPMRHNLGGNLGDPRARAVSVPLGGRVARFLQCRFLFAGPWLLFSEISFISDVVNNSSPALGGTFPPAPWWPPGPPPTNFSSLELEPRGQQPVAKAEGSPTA

human DDR2 ECD = biological target: T2, human DDR2 ECD; assay: ELISA, DDR2 ECD coated, antibody at 1 ug/ml, HRP anti-rabbit detection
Protocol: FIG. 19. Determination of cross-reactivity of a panel of monoclonal antibodies to human DDR2 using ELISA method. DDR1 or DDR2 ECD protein was coated on a high binding plate and each of monoclonal antibodies at 1 ug/ml concentration was added for binding detection with HRP conjugated anti-rabbit antibody (Jackson ImmuneResearch, PA).
To determination cross-reactivity of a panel of anti-human DDR1 monoclonal antibodies to human DDR2 ECD, an ELISA method was used. DDR1 ECD or DDR2 ECD protein was coated on a high binding plate and each of monoclonal antibodies was applied at 1 ug/ml concentration and binding was detected using HRP conjugated anti-rabbit antibody (Jackson ImmuneResearch, PA). Monoclonal antibodies DDR1-3; DDR1-9; DDR1-10; DDR1-14 and DDR1-33 were specific for DDR1 epitopes, while clones DDR1-13; DDR1-15; DDR1-21; DDR1-22 and DDR1-34 appear to recognize epitopes present on both DDR1 and DDR2 ECD.

[2] = biological target: T3, Human DDR1 extracellular domain (ECD) …; assay: titration ELISA; target not given, human DDR1 assumed
Target sequence in this assay (Q08345 21-417): as above

[3] = biological target: T3, Human DDR1 extracellular domain (ECD) …; assay: ELISA, ECD protein coated at 2 ug/ml, antibody titration
Protocol: (§1) FIG. 18A-C. Determination of DDR1 antibody binding to ECD and DS or DSL domains using ELISA method. Recombinant DDR1 extracellular (ECD) protein and domain proteins were coated on a high binding 96-well plates at concentration at 2 μg/ml. (FIG. 18A) DDR1-9Hu antibody titration was used to determine binding curves and EC₅₀s. […] (FIG. 18C)
(§2) Antibody binding domain determination. To determine the binding of DDR1-9 (FIG. 18B) and DDR1-14 (FIG. 18C), and humanized DDR1-9hu-Abl to ECD and DS or DSL domains an ELISA method was used (FIG. 18A). Recombinant DDR1 extracellular (ECD) protein and domain deletion proteins were coated onto high binding 96-well plates at concentration at 2 ug/ml. […] Recombinantly expressed domain proteins were coated on a high-binding 96-well plate (Fisher Scientific) at concentration at 2 ug/ml. A series of antibody titrations was used to determine binding EC50. Deletion of DSL domain of DDR1 ECD impaired the bindings of both DDR1-9 and DDR1-14 antibodies. […] Fragment with DSL deletion totally abolished DDR1-9, DDR1-14, and DDR1-9Hu binding.

[4] = biological target: T3, Human DDR1 extracellular domain (ECD) …; assay: BLI (Octet); target not given, recombinant DDR1 assumed
[5] = biological target: DDR1 ECD fragment with deletion of DS domain (Homo sapiens (Human)) (UniProt Q08345); assay: ELISA, domain deletion protein coated at 2 ug/ml, antibody titration
[6] = biological target: T3, Human DDR1 extracellular domain (ECD) …; assay: titration ELISA on human DDR1
[7] = biological target: T3, Human DDR1 extracellular domain (ECD) …; assay: ELISA, ECD-His coated at 2 µg/ml, antibody titrated
Protocol: as §1, §2

[8] = biological target: DDR1 ECD fragment with deletion of DS domain (Homo sapiens (Human)) (UniProt Q08345); assay: ELISA, ECDΔDS-His coated at 2 µg/ml, antibody titrated

Molecule	binding result (mouse DDR1 ECD)	Kd [1]	koff [1]	kon [1]	binding result (human DDR2 ECD)	EC50 [2]	EC50 (read off the curve) [6]	further results
mouse DDR1 ECD T58A (from UniProt Q03146 22-415) (receptor)								percent of WT collagen binding affinity (Type I collagen): 50%
B1	no binding	0.113 nM	2.27e-05 s⁻¹	202000 M⁻¹ s⁻¹	no binding (tested: 1 ug/ml)	0.0713 µg/mL		
B2								EC50 [3]: 0.083 µg/mL; Kd [4]: 0.39 nM; koff [4]: 6.52e-05 s⁻¹; kon [4]: 165000 M⁻¹ s⁻¹; EC50 [5]: 0.168 µg/mL
B3		0.797 nM	0.000493 s⁻¹	619000 M⁻¹ s⁻¹	no binding (tested: 1 ug/ml)	0.148 µg/mL	~0.02 µg/mL	EC50 (read off the curve) (mouse DDR1 ECD): ~0.02 µg/mL
B4	no binding	1.1 nM	0.00191 s⁻¹	1.73e+06 M⁻¹ s⁻¹	no binding (tested: 1 ug/ml)	0.0598 µg/mL	~0.02 µg/mL	
B5		0.236 nM	7.35e-05 s⁻¹	311000 M⁻¹ s⁻¹	no binding (tested: 1 ug/ml)	0.183 µg/mL		EC50 (read off the curve) [7]: ~0.2 µg/mL; EC50 (read off the curve) [8]: 0.2 µg/mL
